In patent US20120207760A1 (THERACLONE SCIENCES, published 2012):

Key:
[1] = biological target: T1, hemagglutinin (HA) of influenza A/Solomon Islands/3/06 H1N1 (Influenza A virus A/Solomon …); experiment: ELISA, inactivated whole virions coated; transfection supernatant set 5
[2] = biological target: hemagglutinin (HA) of influenza A/Japan/305/57 H2N2 (Influenza A virus A/Japan/305/1957 …, UniProt P03451 16-562); experiment: as above
[3] = biological target: T1, hemagglutinin (HA) of influenza …; experiment: cell-based or functional assay

Binder	OD450 [1]	OD450 [2]	% Neutralization [3]
TCN-558 (5248_H10b) (antibody, V domains shown) VH: QVQLVQSGSEVKKPGTSVKVSCTASGSVFTNYGISWVRQAPGQGLEWMGGIIPLFGAAKYAQKFQGRVTITADESTKTVYMELSRLTSKDTAIYFCAKAPRVYEYYFDQWGQGTPVTVSS VL: EIVMTQFPATLSVSPGERVTLSCRASQSVSNNLAWYQQKPGQPPRLLIYDASTRATGVPAKFSGTGSGTEFTLSISSLQSEDFAVYYCQQYHNWPPSYSFGLGTKLEIK	3.52 OD450	3.31 OD450	–
TCN-538 (3206_O17) (antibody, V domains shown) VH: QITLKESGPTLVKPTQTLTLTCVFSGFSLSITGVRVGWIRQPPGKALEWLALISWDDEKHYSPSLQSRLTITKDTSKNQVVLTMTNLDPVDTATYYCARSTDRGHVLRYFGWMLPGDAFDVWGQGTMVTVSS VL: DIVMTQSPDFLPVSLGERATINCKSSQRVLYSSNNKNYLAWYQLKPGQPPKLIIYWASTRESGVPDRFSGSGSGTEFTLTISSLQAEDVAVYYCQQYYSRPYTFGQGTKLEIK	3.59 OD450	3.37 OD450	35%
TCN-556 (5089_K12) (antibody, V domains shown) VH: QVQLVQSGAEVKKPGASVKVSCKASGYTFIGYDMHWVRQAPGQGLEWMGWINAKRGGTNYAQKFQGRVTMTRDTSISTAYMELNSLRSDDTAVYYCARGVGSRTTIFGVLNPEFDYWGQGTLVTVSS VL: QSALTQPPSASGSPGQSVTISCTGSSSDVGGYDYVSWYQQHPGKAPKLLIYEVTKRPSGVPDRFSGSKSGNTASLTVSGLQAEDEADYYCSSYAGNYNHVFGPGTKVTVL	3.64 OD450	3.64 OD450	–
TCN-542 (5079_A16) (antibody, V domains shown) VH: QVQLQESGPGLVKPSQTLSLTCTVSGGSISSGNYYWNWVRQHPGKGLEWIGYIYYRGSTFYNPSLKSRVTISIDTSKNQFSLRLSSVTAADTAVYYCAKDTRSSLDNYQYGMDVWGQGTTVTVSS VL: QTVVTQEPSLTVSPGGTVTLTCASSTGAVTSSYFPNWFQQKPGQAPRPLIYSTTIRHSWTPARFSGSLLGGKAALTLSGVQPEDEADYYCLLYSGGDPVAFGGGTKLTVL	3.6 OD450	0.07 OD450	98%
TCN-557 (5081_A04) (antibody, V domains shown) VH: QVQLVQSGAEVKKPGASVKVSCKASGHTFTGYYIHWVRQAPGQGLEWMGWINPDSGATSSAQNFQGRVTMTGDTSSSTAYMELSRLSFDDTAVYYCARVLFTSPFDFWGEGTLVTVSS VL: QAVVTQEPSLAVSPGGTVTLTCGSSTGAVTRGHYPYWFQQKPGQAPRALIYDSAGNRHSWTPARFSGSLLGGKAALTLSGAQPEDEAEYYCLLSYSGVWVFGGGTKLTVL	3.58 OD450	3.59 OD450	–
TCN-548 (5092_P01) (antibody, V domains shown) VH: QVQLQESGPGLVKPSETLSLTCTVSSGPMSDYYWSWIRQPPGKGLEWIGHVSVSHGGRTKSNPSVMSRVTISVETSKNQFSLKLTSVTAADTAVYYCARLNYYDRSGYHSPDGPSNNWFDPWGQGTLVTVSS VL: not shown	0.13 OD450	0.09 OD450	–
TCN-550 (5096_F06) (antibody, V domains shown) VH: QVQLQESGPGLVKPSETLSLTCTVSGASINSHYWSWIRQPPGKGLEWIGYVYYSGSTTYNPSLKSRVTLSVDTSKNQFSLNLSSVTAADTAFYYCARHPYDVLTGSGDWFDPWGQGTLVTVSS VL: SYVLTQAPSVSVAPGQTARITCGGNAIGSKKVHWYQHKAGQAPVLVVYDDTDRPSGIPERFSGSNSWSTATLTINRVEAGDEADYYCQVWDFTIDHVVFGGGTKLTVL	0.13 OD450	0.08 OD450	–
TCN-547 (5092_F11) (antibody, V domains shown) VH: QVQLQESGPGLVKPSQTLSLTCTVSGDSISSVDHYWSWIRQHPVKGLEWIGFMYYSASTYYNPSLKSRVTISTDTSKNQFSLRLSSVTAADTAVYYCARGTCAGDCSLHYYYYGLDVWGQGRTVTVSS VL: DIQMTQSPSSLSASVGDRVTITCRASQSISSYLNWYQHKPGKAPKVLMYAVSILQSGVPSRFSGSGSGADFTLTISSLQPEDFATYYCQQSYSSPLTFGGGTKVEIK	0.09 OD450	0.09 OD450	–
TCN-539 (5056_A08) (antibody, V domains shown) VH: QVQLVESGGGVVQPGRSLRLSCAASEITFITYAMHWVRQAPGKGLEWVALISDDGSNKFYADSVKGRFTISRDNSKNTLYLQMNSLRAEDTAAYYCAREGVYFDSGTYRGYFDYWGQETLVTVSS VL: EIVLTQSPATLSLSPGERATLSCRASQSVSSYLAWYQQKPGQAPRLLIYDASNRATGIPARFSGSGSGTDFTLTISSLEPEDFAVYYCQQRSHWPPITFGQGTRLEIK	0.07 OD450	0.07 OD450	97%
TCN-544 (5082_A19) (antibody, V domains shown) VH: QVQLQESGPGLVKPSETLSLTCTVSRGSIGHYFWSWIRQPPGKGLEWIGYISYSGSTKYNPSLRSRVTISVDTSKNQFSLNLNSVTATDTALYYCAREDYDILTGAGPGMEVWGQGTTVTVSS VL: QSMLTQPPSASGTPGQRVTISCSGSSSNIGSNTVNWFKHLPGTAPKLLIYRNDLRPSGVPDRFSGSKSGTSASLAISGLQSEDEADYYCATWDDSLNGFYVFGTGTKVTVL	0.07 OD450	0.07 OD450	95%
TCN-540 (5060_F05) (antibody, V domains shown) VH: QVQLVQSGGGVVQPGRSLRLSCAASGFTFSSYAMHWVRQAPGKGLEWVAIISYDGNDQYYTDSVKGRFTISRDSSKVYLQMHRLRPEDTAVYYCAKEFETSGYFHGSFDYWGQGILVTVSS VL: QSALTQPASVSGSPGQSITISCTGTSSDVGGYNYVSWYQQHPGKAPKLLIYEVTNWPSGVSNRFSGSKSGNTASLTISGLQAEDEADYYCSSYAGSSTWVFGGGTRVTVL	0.09 OD450	3.61 OD450	100%
TCN-551 (5243_D01) (antibody, V domains shown) VH: EVQLVQSGSEVKKPGESLKISCKGSGYSFSNYWIGWVRHMPGKGLEWMGIIYPGDSDTRYSPSFQGQVTMSADKSSSTVYLQWSSLKASDTAIYYCARRGGHSFGYGSGGDTHSEFDSWGQGTLVTVSS VL: QSVLTQSPSVSAAPGQKVTISCSGSDSNIGDYFVCWYQHLPGKPPQLLIYENNKRPSGIPDRFSGSKSGTSATLGITGIQTGDEADYYCATWDGSLSAWVFGGGTKLTVL	3.65 OD450	–	100%
TCN-537 (3194_D21) (antibody, V domains shown) VH: QVQLQQWGSGLLKPSETLSLTCAVYGGSFRDDYWTWIRQPPGKGLEWIGEINHSGRTNYNPSLKSRVTISVDTSLKQFSLKVISVTAADTAVYYCARGTSHVSRYFDWLPPTNWFDPWGQGTQVTVSS VL: DIVLTQSPGTLSLSPGERATLSCRASQSVSSSYLAWYQQKPGQAPRLVMYGAATRATGIPDRFSGSGSGPDFTLTISRLEPEDFAMYYCQQYGNSPITFGQGTRLEIK	3.56 OD450	3.48 OD450	89%
TCN-543 (5081_G23) (antibody, V domains shown) VH: QVHLVQSGAEVRKPGDSVKVSCKTSGYTFSTYPVAWVRQVPGQGLEWMGWISTYNGNTNFAQNFQGRVTLTTDTTTNTAYMEVRSLKFDDTAVYYCARVEGSYRDFWNNQNRFDPWGQGTLVTVSS VL: SYVLTQPPSVSVAPGQTARISCGGSNIGGKSVHWYQQKPGQAPVLVVYDDSGRPSGIPERFSGSNSGDTATLTISRVEAGDEADYFCQVWDNFGGVFGTGTKVTVL	3.63 OD450	3.64 OD450	100%
TCN-549 (5092_P04) (antibody, V domains shown) VH: QVQLVQSGAEVKKPGASVKVSCKASGYTFTGYYMHWVRQAPGQGLEWMGWINPNSGDTNYAQKFQGRVTMTRDTSITTAYMELSSLRSDDTAVYYCARDSPYSSSWSFFDYWGQGPLVTVSS VL: not shown	0.09 OD450	0.08 OD450	–
